Experiments:
Assay type in all cases: biochemical
[1] = test system: construct containing Small Lux (SmLux), Large Lux (LgLux), FKBP and FRB; test: LuxSit split optimization: SmLux-LgLux-FKBP-FRB construct on the surface of yeast, rapamycin-induced signal; settings: Table 19, LgLux variants, 50 uM substrate 1c; for Fold change upon Rap addition: 20 uM Rapamycin
Method: To optimize the function of the LuxSit Splits, a construct containing Small Lux (SmLux), Large Lux (LgLux) and the proteins that bind the molecule Rapamycin (FKBP and FRB), connected by GS linkers, was expressed on the surface of yeast. When 50 uM of substrate 1c is added to yeast expressing this construct, a baseline signal is observed due to SmLux and LgLux reconstitution. When 20 uM of Rapamycin is added, SmLux and LgLux are brought closer to each other by FKBP and FRB, enhancing their reconstitution. As a result, an increase in signal is observed.
Libraries of SmLux and LgLux were assembled and tested independently to identify variants with lower baseline and higher fold change.

[2] = test system: SmLux; test: LgLux stability optimization: error-prone PCR LgLux mutants on yeast, protease treatment, SmLux complementation; settings: Table 20, EP-PCR LgLux mutants on yeast, 50 uM substrate 1c; for Fold change upon SmLux peptide addition: 200 nM SmLux
Method: LgLux mutants were generated by error-prone PCR (EP-PCR) and treated with protease and their activity measured as depicted schematically in FIG. 44.
Yeast expressing a library of the LgLux mutants were incubated with proteases and screened to select variants that were stable enough to resist proteolysis. Functional variants were selected by adding 50 uM of substrate 1c and 200 nM of SmLux.
The nucleotide sequence encoding LgLux_4039 was subjected to EP-PCR to identify protease-stable mutants. The sequences (SEQ ID NOs: 2806-2814) and activity of the mutants are summarized below in Table 20.

[3] = test system: SmLux; test: Computationally generated LgLux variants expressed in E. coli, tested in lysates with SmLux and substrate 1c; settings: for Fold change upon SmLux peptide addition: Table 22, 20 uM SmLux, 50 uM substrate 1c; for Baseline Signal (Normalized by expression): Table 22, 50 uM substrate 1c
How it was run: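 Variants expressed in E. coli and screened as lysates, complemented with 20 uM SmLux and given 50 uM substrate 1c; luminescent activity measured.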

Row | Molecule | Baseline Signal (Normalized by expression) [1] | Fold change upon Rap addition [1] | further results
1 | MBIO-5335: LgLux_4039 variant S2C, R11L, V46I, E54D; SEQ ID NO 2797 (protein) MCEEQIRQNLLRFYEALDSGDAITAASLFDPGVTITLWDGTTFTSIEEFREWFDSQFSTSKDALREISSLEVRGDTVEVTVRLSFTRNGQKHTVDLLQLFKFV | 23769.5 | 1.9 | 
2 | SEQ ID NO 2808: LgLux_4039 EP-PCR mutant K101E (protein) MSEEQIRQNLRRFYEALDSGDAITAASLFDPGVTITLWDGTTFTSVEEFREWFESQFSTSKDALREISSLEVRGDTVEVTVRLSFTRNGQKHTVDLLQLFEFV |  |  | Baseline Signal (Normalized by expression) [2]: 228.3; Fold change upon SmLux peptide addition [2]: 86.8
3 | MBIO-5342: LgLux_4039 variant E54G, S55T, R87S; SEQ ID NO 2802 (protein) MSEEQIRQNLRRFYEALDSGDAITAASLFDPGVTITLWDGTTFTSVEEFREWFGTQFSTSKDALREISSLEVRGDTVEVTVRLSFTSNGQKHTVDLLQLFKFV | 3361.4 | 2 | 
4 | SEQ ID NO 2806: LgLux_4039 EP-PCR mutant N9S (protein) MSEEQIRQSLRRFYEALDSGDAITAASLFDPGVTITLWDGTTFTSVEEFREWFESQFSTSKDALREISSLEVRGDTVEVTVRLSFTRNGQKHTVDLLQLFKFV |  |  | Baseline Signal (Normalized by expression) [2]: 973.7; Fold change upon SmLux peptide addition [2]: 126.7
5 | SEQ ID NO 2810: LgLux_4039 EP-PCR mutant F43L (protein) MSEEQIRQNLRRFYEALDSGDAITAASLFDPGVTITLWDGTTLTSVEEFREWFESQFSTSKDALREISSLEVRGDTVEVTVRLSFTRNGQKHTVDLLQLFKFV |  |  | Baseline Signal (Normalized by expression) [2]: 327.2; Fold change upon SmLux peptide addition [2]: 81.7
6 | MBIO-5339: LgLux_4039 variant R11L, I23V; SEQ ID NO 2801 (protein) MSEEQIRQNLLRFYEALDSGDAVTAASLFDPGVTITLWDGTTFTTVEEFREWFESQFSTSKDALREISSLEVRGDTVEVTVRLSFTRNGQKHTVDLLQLFKFV | 28286 | 1.9 | 
7 | MBIO-5338: LgLux_4039 variant T41A, H92Q; SEQ ID NO 2800 (protein) MSEEQIRQNLRRFYEALDSGDAITAASLFDPGVTITLWDGATFTSVEEFREWFESQFSTSKDALREISSLEVRGDTVEVTVRLSFTRNGQKQTVDLLQLFKFV | 18945.1 | 2.2 | 
8 | SEQ ID NO 2807: LgLux_4039 EP-PCR mutant L99Q (protein) MSEEQIRQNLRRFYEALDSGDAITAASLFDPGVTITLWDGTTFTSVEEFREWFESQFSTSKDALREISSLEVRGDTVEVTVRLSFTRNGQKHTVDLLQQFKFV |  |  | Baseline Signal (Normalized by expression) [2]: 738.4; Fold change upon SmLux peptide addition [2]: 83.3
9 | MBIO-5341: LgLux_4039 variant P31S; SEQ ID NO 2803 (protein) MSEEQIRQNLRRFYEALDSGDAITAASLFDSGVTITLWDGTTFTSVEEFREWFESQFSTSKDALREISSLEVRGDTVEVTVRLSFTRNGQKHTVDLLQLFKFV | 10433.7 | 2.2 | 
10 | SEQ ID NO 2809: LgLux_4039 EP-PCR mutant N9D, V103I (protein) MSEEQIRQDLRRFYEALDSGDAITAASLFDPGVTITLWDGTTFTSVEEFREWFESQFSTSKDALREISSLEVRGDTVEVTVRLSFTRNGQKHTVDLLQLFKFI |  |  | Baseline Signal (Normalized by expression) [2]: 638.6; Fold change upon SmLux peptide addition [2]: 170
11 | MBIO-5340: LgLux_4039 variant S2T, I6L, R11L, E48K; SEQ ID NO 2804 (protein) MTEEQLRQNLLRFYEALDSGDAITAASLFDPGVTITLWDGTTFTSVEKFREWFESQFSTSKDALREISSLEVRGDTVEVTVRLSFTRNGQKHTVDLLQLFKFV | 6666.1 | 2.2 | 
12 | MBIO-5337: LgLux_4039 variant R11L, D30N; SEQ ID NO 2799 (protein) MSEEQIRQNLLRFYEALDSGDAITAASLFNPGVTITLWDGTTFTSVEEFREWFESQFSTSKDALREISSLEVRGDTVEVTVRLSFTRNGQKHTVDLLQLFKFV | 14853.7 | 2.1 | 
13 | MBIO-5336: LgLux_4039 variant R11L; SEQ ID NO 2798 (protein) MSEEQIRQNLLRFYEALDSGDAITAASLFDPGVTITLWDGTTFTSVEEFREWFESQFSTSKDALREISSLEVRGDTVEVTVRLSFTRNGQKHTVDLLQLFKFV | 16379.8 | 2.1 | 
14 | SEQ ID NO 2805: LgLux_4039 variant S19C (protein) MSEEQIRQNLRRFYEALDCGDAITAASLFDPGVTITLWDGTTFTSVEEFREWFESQFSTSKDALREISSLEVRGDTVEVTVRLSFTRNGQKHTVDLLQLFKFV | 3667.6 | 2 | 
15 | MBIO-5374: computationally generated LgLux, SEQ ID NO 2789 (protein) MTPEERIANVRAFYAALASGDLEAAAALFDPGVTITLWDGTTFTSVEEFRAWFEEQFKTSKDALREIESIEVDGDTVRVLVRLTFVRDGEEKVVDLLQLFKFV |  |  | Fold change upon SmLux peptide addition [3]: 240.47; Baseline Signal (Normalized by expression) [3]: 796
16 | MBIO-5375: computationally generated LgLux, SEQ ID NO 2790 (protein) MTPEERIADVRAFYAALASGDLEAAKALFDPGVTITLWDGTTFTSVEEFRAWFEEQFKTSKDALREIESIEVDGDTVRVLVRLSFTRNGQKHTVDLLQLFKFV |  |  | Fold change upon SmLux peptide addition [3]: 98.41; Baseline Signal (Normalized by expression) [3]: 207.6
17 | MBIO-5376: computationally generated LgLux, SEQ ID NO 2791 (protein) MTPEERIADVRAFYAALASGDLEAAKALFDPGVTITLWDGTTFTSVEEFRAWFEEQFKTSKDALREIESIEVDGDTVRVLVRLSFTRNGQKHTVDLLQLFKFI |  |  | Fold change upon SmLux peptide addition [3]: 245.29; Baseline Signal (Normalized by expression) [3]: 409.4
